Results taken from the supplement of paper PMC10724198.
± gives the standard deviation of the averaged measurements.

Test system: Saccharomyces cerevisiae
Experiment: protein stability index of tFT-peptide fusion (C-terminal peptide) (PSI (0-1 scale)); higher = more stable (slower turnover)
Conditions: genetic background: wild type; temperature: 30 C
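Further: PSI is a weighted mean of sequencing reads over stability bins, variants kept only with over 10 reads, mCherry proximal and sfGFP distal, peptide attached via GGGS linker.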

Sequence	protein stability index
RLGCGFGGGEEV	0.674 ± 0.032
RLGDALCFSFTV	0.644 ± 0.032
RLGGGGCVWVRG	0.683 ± 0.027
RLGIADHEYPCE	0.673 ± 0.011
RLGVWVWGFTPG	0.742 ± 0.082
RLGWTTSEELWC	0.657 ± 0.029
RLLSPPPPPPPV	0.701 ± 0.071
RLLSSPLHPPLP	0.701 ± 0.018
RLPLAPFSVTTH	0.699 ± 0.1
RLPLASPPHSSP	0.675 ± 0.056
RLPLPPSRLVKH	0.671 ± 0.026
RLPPGRPPPPPP	0.602 ± 0.08
RLPPPSPSLPPL	0.722 ± 0.063
RLPQSRLRTPPP	0.705 ± 0.069
RLRTVQNLQIVV	0.658 ± 0.028
RLSARRSVGGSA	0.7097 ± 0.0051
RLSCFLVWFPFW	0.5924 ± 0.0021
RLSFAWGGLLVV	0.523 ± 0.0057
RLSGDRCSHDAG	0.6768 ± 0.0037
RLSRCFDSHLGG	0.696 ± 0.038
RLSVWTFCSMVW	0.555 ± 0.0085
RLTPFPPRPLPL	0.767 ± 0.2
RLVCLVTQSVPH	0.613 ± 0.021
RLVNSVAVSFLR	0.697 ± 0.1
RLVSPPPLPHRP	0.688 ± 0.0062
RMCLDYSFDSLL	0.673 ± 0.0082

Sequence	protein stability index
RMIPYDLIRLTR	0.705 ± 0.012
RMKGTNKEGKKK	0.693 ± 0.054
RMLHYCTYSLLL	0.71 ± 0.079
RNAEVWDNLFEG	0.6969 ± 0.0061
RNAGYPALDELS	0.6861 ± 0.0047
RNIRINKKVKDI	0.594 ± 0.032
RNKINKKKLKKG	0.7403 ± 0.0062
RNKRKKNKDKIK	0.677 ± 0.051
RNKTNYIQKLTK	0.665 ± 0.027
RNNIKIKNTQQN	0.759 ± 0.045
RNRRKEMKKGRE	0.631 ± 0.034
RNSPLFLESPGS	0.723 ± 0.034
RNTIKTKKSNYV	0.654 ± 0.015
RPAPSRTYLNLI	0.674 ± 0.026
RPASSYPPHSPT	0.767 ± 0.037
RPFGRPTSMRHA	0.616 ± 0.059
RPFLPPPPHCPP	0.75 ± 0.036
RPFVRDFGCAVW	0.711 ± 0.023
RPGNIRNNKKKK	0.688 ± 0.021
RPIQPATLAYSP	0.682 ± 0.037
RPLLPPTFATSF	0.751 ± 0.038
RPLPPLIPSSFS	0.698 ± 0.038
RPLSDDTDCPCI	0.748 ± 0.13
RPLSSSFRTVPS	0.721 ± 0.037
RPNTKKHKIGER	0.719 ± 0.03
RPPDPPLHHNLP	0.687 ± 0.014

Sequence	protein stability index
RPPFPPPPLPPP	0.656 ± 0.031
RPPFRVYDYPLL	0.671 ± 0.039
RPPPPHPSPLPL	0.713 ± 0.052
RPPPPTAPPPSR	0.719 ± 0.043
RPPRPGFCLFLP	0.652 ± 0.0067
RPPSNRPPPPSS	0.698 ± 0.0032
RPRGRGRSRGDT	0.633 ± 0.037
RPRIPLNSSSLS	0.74 ± 0.037
RPRLSGGLGGVG	0.644 ± 0.051
RPRTSLFPCSLP	0.711 ± 0.081
RPTPHVVLPPLP	0.524 ± 0.067
RPTPSAPHRTRI	0.735 ± 0.041
RQCSGMIMKDVG	0.73 ± 0.036
RQDLLILIKQKG	0.573 ± 0.0072
RQDRTFEIQGWE	0.697 ± 0.084
RQKIRRKSSTKN	0.704 ± 0.0074
RQRGNMEIRIRR	0.709 ± 0.027
RRAPLRNTSRHR	0.663 ± 0.021
RRCTLVERAWRW	0.628 ± 0.039
RREGGRQRGGSG	0.67 ± 0.063
RREGWYTNRERG	0.668 ± 0.013
RRFAKVALLSLR	0.644 ± 0.12
RRGAVVLVSPAL	0.677 ± 0.021
RRGPLDSVLVAI	0.713 ± 0.05
RRGRGGSGGSAP	0.734 ± 0.053
RRGWGDRLGRDA	0.711 ± 0.1

Sequence	protein stability index
RRHKNNRLTVCR	0.625 ± 0.098
RRINRRGPRMME	0.62 ± 0.015
RRKEQGNHSTMR	0.663 ± 0.013
RRKHKSEEKHKR	0.649 ± 0.038
RRKNIQEKKIKK	0.725 ± 0.016
RRKVGVFTRRWV	0.691 ± 0.04
RRKYIFRMIYPR	0.658 ± 0.026
RRLRGGTQAEGE	0.682 ± 0.068
RRLRRALPPQLA	0.577 ± 0.037
RRPPPPSPPPPP	0.7095 ± 0.0062
RRPSSCSPLPLY	0.695 ± 0.03
RRRAEGRRGVRA	0.6223 ± 0.0014
RRRAGSKEKQRK	0.703 ± 0.019
RRRGQDEGKQKR	0.7511 ± 0.0059
RRRGQLNTAEWK	0.717 ± 0.065
RRRGREVCRCTE	0.716 ± 0.046
RRRPPPLPPPHL	0.63 ± 0.015
RRSGILGSSFVF	0.75 ± 0.047
RRSRTEVVAVGG	0.676 ± 0.017
RRSVMLISNETR	0.698 ± 0.038
RRTDHQRAVREI	0.731 ± 0.042
RRVFSAGTRCGI	0.761 ± 0.11
RSAVPSARASAD	0.6431 ± 0.0026
RSCPGSWFRLSV	0.699 ± 0.12
RSFPSPPASLLL	0.66 ± 0.062
RSGPLFPLSCPP	0.767 ± 0.026

Sequence	protein stability index
RSGPRMNVNRTL	0.646 ± 0.11
RSGQEKEKWEER	0.701 ± 0.022
RSHSTSSETNFV	0.6885 ± 0.0024
RSKHNEDRVVYI	0.709 ± 0.093
RSLPLAPPLAPL	0.742 ± 0.029
RSPPAPPHSCPP	0.69 ± 0.14
RSRGARMPTTPT	0.684 ± 0.034
RSRGSRNGKWVW	0.703 ± 0.02
RSRRDTDFGLLI	0.717 ± 0.11
RSSDFASDRGWT	0.67 ± 0.028
RSSLYLDVVLSF	0.709 ± 0.097
RSSRRLAGPVSS	0.639 ± 0.06
RSSSLRRGIGQR	0.688 ± 0.071
RSTDKLLGLKKM	0.652 ± 0.073
RSTVFCSTFVHD	0.672 ± 0.014
RSVGPPTLPTHP	0.666 ± 0.023
RSWCAGMAGRRR	0.6626 ± 0.0043
RSWGRVCFGGVV	0.657 ± 0.054
RTGTGTRTRPSR	0.701 ± 0.066
RTKENYKRRKEK	0.702 ± 0.12
RTLEIYRGLTNE	0.648 ± 0.094
RTPQLSVFDLGI	0.7957 ± 0.0039
RTRRGRIGEIGP	0.703 ± 0.037
RTRTGRPKSPLH	0.6354 ± 0.0052
RTSLGFSPLIHQ	0.6818 ± 0.0057
RTVTKGTTFKVR	0.671 ± 0.057

Sequence	protein stability index
RTWGGKKHKKRK	0.716 ± 0.014
RVAWFSSNCFAV	0.571 ± 0.061
RVDFRLPVYLGI	0.61 ± 0.015
RVEGGWGEAWRE	0.803 ± 0.075
RVEGKNNKEVCI	0.742 ± 0.079
RVESRFSGTDSF	0.708 ± 0.041
RVGPLLLTAGPR	0.644 ± 0.029
RVGQINKFLPLE	0.682 ± 0.071
RVGSGCFVGIFC	0.577 ± 0.024
RVKGCYGPGSGI	0.685 ± 0.066
RVLGEGKCCIRV	0.6063 ± 0.0056
RVLRAELCLHEI	0.687 ± 0.065
RVLSAASATRMT	0.619 ± 0.013
RVLSQAGSYSLC	0.587 ± 0.019
RVLSWSGRQSWC	0.668 ± 0.045
RVNERNAEAGGD	0.641 ± 0.043
RVPLFPIKMGLG	0.591 ± 0.035
RVPPSRLSLPLS	0.6951 ± 0.0043
RVRAITRKCGQY	0.656 ± 0.051
RVRASGIGRFVE	0.625 ± 0.033
RVRGTLMLRSYG	0.64 ± 0.037
RVSIPALKEIAS	0.737 ± 0.036
RVSLSHPDRCAG	0.7264 ± 0.0025
RVSRSCCATGEG	0.599 ± 0.019
RVSSAAGGSIDL	0.738 ± 0.1
RVSVRGLESGVC	0.665 ± 0.026

Sequence	protein stability index
RVSWGSTRLSRA	0.6427 ± 0.0064
RVVMIYAQWCLP	0.623 ± 0.011
RVWEGGGGGDGC	0.664 ± 0.047
RVWEGGRGGDGC	0.676 ± 0.024
RVWERGGGGDGC	0.645 ± 0.049
RWGCHFWVGFVG	0.544 ± 0.046
RWIWTRESTFSN	0.705 ± 0.016
RWVGVGPEGGVA	0.678 ± 0.068
RYFCPVLGPVNF	0.652 ± 0.046
RYFSFNVSSCLD	0.767 ± 0.048
RYGYCVPNVMRS	0.778 ± 0.11
RYRRQESYVIIK	0.766 ± 0.13
SAACQRWGYLRV	0.68781 ± 0.00045
SAERLKIVNDRI	0.753 ± 0.055
SAFLRRFLFFQW	0.572 ± 0.035
SALPPSRLPRSP	0.713 ± 0.049
SAMSFTSRGVRH	0.698 ± 0.011
SAPLLLPPLSSP	0.713 ± 0.023
SAPPPSPAPSPY	0.677 ± 0.023
SARDVPPPPLTP	0.733 ± 0.018
SASRSLFLSRSP	0.6703 ± 0.0023
SASWARRSLPIW	0.729 ± 0.045
SATIRDILHCRF	0.8435 ± 0.0021
SAVHRSVPMGGG	0.666 ± 0.032
SAVSVATVVWSV	0.705 ± 0.092
SCEERVGEKVMG	0.6398 ± 0.0014

Sequence	protein stability index
SCFEFGALSSPI	0.753 ± 0.034
SCGWRGGWWVMG	0.691 ± 0.072
SCLPSDRLTYLP	0.714 ± 0.014
SCLRFCSFGSPF	0.757 ± 0.12
SCLYPTQILART	0.631 ± 0.017
SCPPRLVFPRPS	0.66 ± 0.034
SCRVSFLFFLFE	0.562 ± 0.016
SCTPEDGRVRYT	0.66 ± 0.048
SDCPYVYVRVRD	0.69 ± 0.02
SDDPPLSLVISL	0.754 ± 0.02
SDMCLGRVFCFL	0.63 ± 0.069
SDSPSAPPSAYH	0.62 ± 0.058
SDVCVYVIRDIG	0.565 ± 0.068
SDVFGGVLSFGF	0.6613 ± 0.0008
SEAKRMSGSSAN	0.635 ± 0.041
SEICGAPLARLR	0.707 ± 0.034
SEILFRSSPFPI	0.721 ± 0.09
SELEADKRIKRK	0.739 ± 0.094
SEPADGRDRMAE	0.6885 ± 0.0054
SERNENKTGKVQ	0.747 ± 0.11
